In US20220289837A1, “Cystic Fibrosis Transmembrane Conductance Regulator Stabilizing Agents” (VIB VZW, priority 2019, published 2022):

Target: T1, F508del-CFTR (Homo sapiens, UniProt P13569, DEL508-508)
T1 construct: expressed in transfected cells
Assay: Forskolin induced organoid swelling (FIS) assay
Type: cell-based
Conditions: F508del homozygous intestinal organoids, lentiviral Nb, 3 μM VX-809 24 h before, Fsk and 3 μM VX-770, 2 h
From the text: Intestinal organoids are 3D epithelial structures grown from a single Lgr5+ stem cell (originating from the crypts of the GI-tract) with an internal lumen that recapitulates key features of the intestinal tissue architecture. When differentiated, the organoids form villus and crypt-like structures. CFTR is located at the apical membrane lining the internal lumen and its activation leads to rapid organoid swelling, in direct correlation with the amount of functional CFTR. This model system thus provides a physiologically relevant assay to evaluate the potential of new therapies with high translational value. CF patient-derived organoids expressing F508del-CFTR from two alleles were transduced with lentiviral vectors encoding the sequence of either a stabilizing nanobody (T2a) or a control nanobody. 24 h before FIS assay, corrector 3 μM VX-809 or DMSO was added. Organoids were stimulated by Fsk (0,8 μM) and 3 μM VX-770 just before FIS. […]
Transduction of human intestinal organoids was performed as described previously (Vidovic, Carlon et al. 2016, Ensinck, De Keersmaecker et al. 2020). […] Organoids were stimulated with forskolin (5 μM) and VX-770 (3 μM) or DMSO, and analyzed by confocal live cell microscopy at 37° C. for 120 min (LSM800, Zeiss, Zen Blue). The total organoid area increase relative to t=0 of forskolin treatment was quantified.

T1 sequence (P13569 with tags, fused parts or gaps DEL508-508): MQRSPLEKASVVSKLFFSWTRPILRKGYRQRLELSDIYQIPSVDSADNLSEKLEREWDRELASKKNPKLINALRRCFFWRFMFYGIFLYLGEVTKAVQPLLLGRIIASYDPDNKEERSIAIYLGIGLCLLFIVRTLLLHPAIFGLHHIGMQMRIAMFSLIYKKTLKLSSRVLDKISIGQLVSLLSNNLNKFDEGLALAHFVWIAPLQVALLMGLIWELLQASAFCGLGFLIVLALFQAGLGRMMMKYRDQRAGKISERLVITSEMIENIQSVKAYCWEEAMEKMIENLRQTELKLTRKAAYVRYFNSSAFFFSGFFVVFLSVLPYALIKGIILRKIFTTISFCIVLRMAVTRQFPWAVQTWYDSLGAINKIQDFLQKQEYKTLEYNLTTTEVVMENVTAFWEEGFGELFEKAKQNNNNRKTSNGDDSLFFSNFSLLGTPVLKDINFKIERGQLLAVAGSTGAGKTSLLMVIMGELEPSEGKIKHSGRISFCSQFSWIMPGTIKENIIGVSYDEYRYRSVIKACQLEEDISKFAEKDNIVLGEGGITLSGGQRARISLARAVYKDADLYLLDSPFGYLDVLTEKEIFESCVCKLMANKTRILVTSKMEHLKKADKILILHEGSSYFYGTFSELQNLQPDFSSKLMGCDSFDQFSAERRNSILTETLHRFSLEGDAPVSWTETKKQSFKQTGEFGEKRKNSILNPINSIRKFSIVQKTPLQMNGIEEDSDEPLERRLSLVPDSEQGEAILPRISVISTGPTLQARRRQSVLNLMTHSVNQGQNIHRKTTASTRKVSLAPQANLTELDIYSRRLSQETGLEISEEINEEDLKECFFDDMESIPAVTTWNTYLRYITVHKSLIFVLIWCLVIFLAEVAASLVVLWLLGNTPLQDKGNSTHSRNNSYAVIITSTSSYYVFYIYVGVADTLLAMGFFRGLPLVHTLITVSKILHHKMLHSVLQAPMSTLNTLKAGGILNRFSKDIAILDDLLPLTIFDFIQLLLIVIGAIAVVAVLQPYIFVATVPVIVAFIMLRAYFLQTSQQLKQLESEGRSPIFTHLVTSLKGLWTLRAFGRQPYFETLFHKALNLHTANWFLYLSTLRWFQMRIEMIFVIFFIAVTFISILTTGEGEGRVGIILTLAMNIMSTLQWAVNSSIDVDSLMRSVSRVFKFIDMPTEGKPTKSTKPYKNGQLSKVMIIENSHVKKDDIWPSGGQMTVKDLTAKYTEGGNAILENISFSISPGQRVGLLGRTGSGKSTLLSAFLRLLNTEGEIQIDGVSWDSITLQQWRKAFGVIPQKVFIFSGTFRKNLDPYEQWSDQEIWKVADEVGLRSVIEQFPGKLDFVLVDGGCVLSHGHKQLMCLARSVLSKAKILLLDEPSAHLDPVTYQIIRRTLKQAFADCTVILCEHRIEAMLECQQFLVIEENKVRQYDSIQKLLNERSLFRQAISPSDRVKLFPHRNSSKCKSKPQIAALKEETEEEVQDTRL

B1: T2a: NBD1-specific CFTR-stabilizing nanobody, SEQ ID NO:3, binds epitope 1 (protein)
VHH: QVQLQESGGGLVQAGGSLRLSCAASGSIFRIDAMGWYRQAPGKQRELVAHSTSGGSTDYADSVKGRFTISRDNAKNTVYLQMNSLKPEDTAVYYCNADVRTRWYASNNYWGQGTQVTVSS
modifications: T2a Nanobody amino acid sequence
CFTR response (relative increase in organoid surface area): significantly increased CFTR functionality over time
